Five molecules from patent US20150225464A1 (Affibody, published 2015) can be followed below.

Assay [1] concerns the target T1, rat serum albumin (rat, UniProt P02770 25-608).
T1 construct: Bought; also called RSA
In words: SPR Biacore2000 sensorgrams. On the procedure: (§1) The binding of the ABD variants obtained in Example 1 to human serum albumin (HSA), rat serum albumin (RSA), cynomolgus serum albumin (CSA) and mouse serum albumin (MSA) was analyzed by surface plasmon resonance using a Biacore2000 instrument.
In general terms: SPR reads the build-up and loss of mass on a sensor chip optically.

Assay [2] addresses T2, mouse serum albumin (mouse, UniProt P07724 25-608).
T2 construct: Bought; also called MSA
The experiment in a line: SPR Biacore2000 sensorgrams. On the procedure:
as §1

For assay [3], the target named is T3, human serum albumin (human, UniProt P02768 25-609).
T3 construct: Bought recombinant product; also called HSA; Albucult
T3 sequence (P02768 25-609 limits assumed): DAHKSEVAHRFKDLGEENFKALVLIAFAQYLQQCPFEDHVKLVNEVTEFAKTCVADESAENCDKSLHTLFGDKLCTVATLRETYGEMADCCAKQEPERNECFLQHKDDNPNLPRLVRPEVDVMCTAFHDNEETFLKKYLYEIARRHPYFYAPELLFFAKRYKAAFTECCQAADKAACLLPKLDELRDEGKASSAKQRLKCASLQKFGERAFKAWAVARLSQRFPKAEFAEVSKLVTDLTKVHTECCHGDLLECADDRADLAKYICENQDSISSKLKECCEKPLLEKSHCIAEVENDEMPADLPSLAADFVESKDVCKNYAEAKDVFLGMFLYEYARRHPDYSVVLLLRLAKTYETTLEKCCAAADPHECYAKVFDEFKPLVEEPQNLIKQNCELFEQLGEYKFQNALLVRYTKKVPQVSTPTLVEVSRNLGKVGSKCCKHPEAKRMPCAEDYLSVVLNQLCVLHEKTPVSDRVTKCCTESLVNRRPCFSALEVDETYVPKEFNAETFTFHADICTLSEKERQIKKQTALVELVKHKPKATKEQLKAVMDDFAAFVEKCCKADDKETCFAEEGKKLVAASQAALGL
In words: SPR Biacore2000, HSA immobilized on CM-5, polypeptide as analyte, 1:1 Langmuir fit, relative values.
Experimental: (§2) Biosensor analysis on a Biacore2000 instrument (GE Healthcare) was performed with HSA (Albucult®, Novozymes), CSA (purified in-house from cynomolgus serum), RSA (Sigma-Aldrich, Cat. No. A6272) and MSA (Sigma-Aldrich, Cat. No. A3559) immobilized by amine coupling onto the carboxylated dextran layer of the surfaces of CM-5 chips (research grade; GE Healthcare) according to the manufacturer's recommendations.
(§3) ABD variants were used as analytes and were injected in duplicates over the chip at three analyte concentrations (2.5, 10 and 40 nM). The association phase was 5 min followed by a long dissociation phase (60 min) to account at least partially for the slow off-rate of the ABD variants. […] Therefore, all KD's are given as relative KD values only.
(§4) After subtraction of reference surface and buffer injection, curves were fitted to a 1:1 (Langmuir) binding model using BlAevaluation software with correction for mass transfer and with RUmax set as a local parameter.

Assay [4] has as its target T3, human serum albumin. In words: SPR Biacore2000, albumin immobilized on CM-5, polypeptide as analyte, relative KD.
Experimental: as §2, §3, §4
Assay [5] concerns the target T1, rat serum albumin. The description is as above.
Experimental: as §2, §3, §4
The target in assay [6] is T4, cynomolgus serum albumin (cynomolgus).
T4 construct: Purified from serum; also called CSA
T4 sequence (A2V9Z4 25-608): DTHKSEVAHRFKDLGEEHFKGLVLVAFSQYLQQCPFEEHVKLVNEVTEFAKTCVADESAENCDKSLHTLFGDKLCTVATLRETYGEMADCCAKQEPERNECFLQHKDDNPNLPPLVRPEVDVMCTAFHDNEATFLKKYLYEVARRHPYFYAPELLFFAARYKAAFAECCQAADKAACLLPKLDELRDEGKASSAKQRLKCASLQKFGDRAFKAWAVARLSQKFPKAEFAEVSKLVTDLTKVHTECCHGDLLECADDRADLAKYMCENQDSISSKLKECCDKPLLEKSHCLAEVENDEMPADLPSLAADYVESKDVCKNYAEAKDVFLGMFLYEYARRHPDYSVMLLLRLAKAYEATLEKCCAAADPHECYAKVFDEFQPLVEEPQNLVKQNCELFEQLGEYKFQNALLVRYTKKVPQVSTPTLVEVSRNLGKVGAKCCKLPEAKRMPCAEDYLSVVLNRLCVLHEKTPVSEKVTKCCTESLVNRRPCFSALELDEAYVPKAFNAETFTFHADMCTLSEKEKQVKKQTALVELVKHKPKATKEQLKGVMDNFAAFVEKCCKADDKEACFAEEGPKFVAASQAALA
The assay is described as above.
Experimental: as §2, §3, §4

In assay [7] the target is T2, mouse serum albumin. Described as above.
Experimental: as §2, §3, §4

Residue numbers refer to the chain shown, from its start. Names and notes keep the numbering of the source.

T1 sequence (P02770 25-608 limits assumed): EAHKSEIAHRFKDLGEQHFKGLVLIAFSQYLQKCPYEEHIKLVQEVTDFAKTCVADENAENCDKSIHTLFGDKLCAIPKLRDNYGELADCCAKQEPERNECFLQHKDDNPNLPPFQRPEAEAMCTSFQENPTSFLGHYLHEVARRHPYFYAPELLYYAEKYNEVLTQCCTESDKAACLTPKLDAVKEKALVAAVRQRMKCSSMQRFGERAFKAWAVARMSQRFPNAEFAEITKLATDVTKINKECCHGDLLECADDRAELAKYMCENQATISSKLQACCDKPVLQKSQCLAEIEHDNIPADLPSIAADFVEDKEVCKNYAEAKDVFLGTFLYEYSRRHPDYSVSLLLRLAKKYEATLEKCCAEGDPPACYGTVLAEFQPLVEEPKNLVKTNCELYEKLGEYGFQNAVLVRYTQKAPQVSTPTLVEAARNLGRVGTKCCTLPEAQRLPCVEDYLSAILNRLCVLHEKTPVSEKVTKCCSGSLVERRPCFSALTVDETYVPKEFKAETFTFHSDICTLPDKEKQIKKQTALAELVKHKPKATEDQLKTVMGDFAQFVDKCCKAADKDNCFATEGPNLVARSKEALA

B1: PEP06923 (designed binder)
chain: GSSLAEAKVLANRELDKYGVSDFYKRLINKAKTVEGVEALKLHILAALP
notes: also called ABD variant; control polypeptide
Regarding B1, the binding result in assay [1] and in assay [2] was “binds” throughout.

B2: PEP12379 (designed binder)
chain: GSSLAEAKEAANAELDSYGVSDFYKNLIDKAKTVEGVEALKDAILAALP
notes: R23N against PEP07843 (position counted on the 46-mer without GSS); Control polypeptide, expressed in E. coli; also called ABD variant; R23N variant of PEP07843
By Kd is commonly meant the free concentration of one partner at which half of the binding sites on the other are occupied at equilibrium, for simple one-to-one binding. A higher Kd goes with weaker binding. Usually koff stands for a measure of how fast the partners let go of each other. Lower therefore signals a long-lived complex. By kon is commonly meant a measure of how fast the partners come together. B2: the binding result in assay [1] is given as “binds”. Moreover, in assay [2], the binding result is “binds”. In assay [3], the affinity, expressed as Kd, was 14 pM; the koff worked out at 2.36e-05 s⁻¹; the kon worked out at 1.7e+06 M⁻¹ s⁻¹.

B3: PEP12380 (designed binder)
chain: B2 chain with N26K
notes: Inventive variant; 46 residues with an N-terminal GSS extension; R23K against PEP07843 (position counted on the 46-mer without GSS); Expressed in E. coli; also called ABD variant; R23K variant of PEP07843
As for B3, the Kd in assay [4] was found to be 7.5 pM; in assay [5] it was 9.3 pM; in assay [6] it was 11 pM; in assay [7], 117 pM; in assay [3] it was 7.5 pM. For the same molecule, in assay [3], the koff was determined as 2.62e-05 s⁻¹. In assay [3], this molecule yielded a kon of 3.48e+06 M⁻¹ s⁻¹.

B4: PEP07843 (designed binder)
chain: B2 chain with N26R
notes: single Arg at position 23 of the 46-mer; GSS extension at the N-terminus; also called ABD variant; control
B4: the Kd in assay [4] was 6.7 pM; in assay [5] it was 8.2 pM; in assay [6], 9.8 pM; in assay [7] it was 87 pM; in assay [3] it was 6.7 pM. For the same molecule, the koff in assay [3] turned out to be 2.99e-05 s⁻¹. The same molecule returned a kon in assay [3] of 4.49e+06 M⁻¹ s⁻¹.

B5: PEP12381 (designed binder)
chain: B2 chain with N26S
notes: Control polypeptide; 46 residues with an N-terminal GSS extension; R23S against PEP07843 (position counted on the 46-mer without GSS); Expressed in E. coli; also called ABD variant; R23S variant of PEP07843
For B5, in assay [1], the binding result is recorded as “binds”. The binding result in assay [2] is “binds”. Further, in assay [3], the affinity, expressed as Kd, was 17 pM; the koff is 3.08e-05 s⁻¹; the kon came to 1.83e+06 M⁻¹ s⁻¹.
